# Experimental data as given in publication PMC5142333, “The topology, structure and PE interaction of LITAF underpin a Charcot-Marie-Tooth disease type 1C” (BMC Biology, 2016).
# Molecular target: the molecule itself
# Assay: SEC; Superdex 200 10/300 GL; recombinant LITAF constructs; wild type LITAF kept in detergent
protein,measurement,value
"wild type LITAF (full length, recombinant) (natural protein, human, UniProt Q99732 1-161, looked up, Lipopolysaccharide-induced tumour necrosis factor-alpha factor (LITAF, SIMPLE), human, full length wild type; Kept soluble with detergent (1% DDM or 1% FC12 at lysis, 0.04% DDM or 0.125% FC12 afterwards); also called LITAF WT; full length wild type LITAF protein; source: C43(DE3) BL21 E. coli, purified in detergent (Ni-NTA, ULP1 cleavage, SEC; DDM or FC12); not shown: His6, N-terminal, cleaved; …) MSVPGPYQAATGPSSAPSAPPSYEETVAVNSYYPTPPAPMPGPTTGLVTGPDGKGMNPPSYYTQPAPIPNNNPITVQTVYVQHPITFLDRPIQMCCPSCNKMIVSQLSYNAGALTWLSCGSLCLLGCIAGCCFIPFCVDALQDVDHYCPNCRALLGTYKRL",binding result,binds
